According to the nanobody polyreactivity screen of Harvey et al. (2022):

Assay: yeast display, Sf9 membrane polyspecificity reagent, FACS + sequencing; frameworks hold sequencing errors
Method in brief: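 Polyreactivity labels are assigned by the sorting gate from which each nanobody was recovered. The gates were low and high (top ~1%), set on anti-HA fluorescence for expression and streptavidin fluorescence for reagent binding. Before sorting, galactose-induced (36–48 hours) yeast display cells were stained for 1 hour at 4 °C with 10% biotinylated, detergent-solubilized Sf9 membrane reagent.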

With “QVQHVESVGGLDQAGVSLRLSSSASGITFSYNAMGCSRQAPGKESEFVAAISSNSDSTYYADSVKGRFTISRDNAKNTVYLQMNSLKPEDTAVYYCAAETPDAPDYSGFYYWGQGTQVTVSS” the “polyreactivity (PSR sort gate)” value was “low polyreactivity”.

In the case of “QVQLVESGGGLVQAGGSLRLSCAASGFTFRDYAMGWSRQAPGKERELVAAISRSGDSTYYADSVKGRFTISRDNAKNTVYLQMNSLKPEDTAVYYYAAKRRYTTYDYWGQGTQVTVSS”, the “polyreactivity (PSR sort gate)” value is reported as “high polyreactivity”.

With “QVQLVESGGGLVQAGGSLRLTCAASGGTFDRNAMGWYRQAPGKERELVATITRRAGNTYYAYSVKGRFTISRDNAKNTVYLQMNSLKPEDTAVYYFAAYPLRSRRYYYWGQGTQVTVSS” the “polyreactivity (PSR sort gate)” value was “high polyreactivity”.

For “QVQLVESGGGLVQAGGSLRLSCAASGFTIVWYAMGWYRQATGKERELVAAISSGVSTYYADSVKGRFTISRDNAKNTVYLQMNSLKPEDTAVYYCAADREYYDEYAGYEYWGQGTQVTVSS”, the “polyreactivity (PSR sort gate)” value was “low polyreactivity”.

With “QDQLVESGGGLVQAGGSLRLSCAASGRTISYYAMGWYRQAPGKERELVAAISGGGSTNYADSVKGRFTISRDNAKNTVYLQMNSLKPEDTAVYYCNARVYGVFRRRVNYWGQGTQVTVSS” the “polyreactivity (PSR sort gate)” value was “high polyreactivity”.

In the case of “QVQLVESGGGLVQAGGSLRLSCAASGRTFGWYAMGWYRQAPGKERELVASITQRGGRTYYADSVKGRFTISRDNAKNTVYLQMNSLIPEDTAVYYCAARGATVSSRIYGYWGQGTQVTVSS”, the “polyreactivity (PSR sort gate)” value is reported as “high polyreactivity”.

With “QVQLVESGGGLVQAGGSLRLSCAASGRIFDVYAMGWYRQAPGKERELVATITGSGGGTYYADSVKGRFTISRDNAKNPVYLQMNSLKPEDTADYYCAADYYPTYAYYVSNVGYDYWGQGTQVTVSS” the “polyreactivity (PSR sort gate)” value was “low polyreactivity”.

For “QVLLVESGGGLGQAGGSLRLSCAASGAIFVGYAMGWYRQAPGKEREMVAAISKSGGSTYYADSVKGRFTISRDNAKNTVYLQMKSLKPDDTAVYYCAAYPVRLVYSQHRYLYDYWGQGTQVTVSS”, the “polyreactivity (PSR sort gate)” value was “high polyreactivity”.

With “QVQLVESGGGLVQAGGSLRLSCAASGSTFIVYAMGWYRQAPGKERELVASITWRGGSTYYADSVKGRFTISRDNAKNTVYFQMNSLKPEDTAVYYCARGYETTNYQKFYITDDGDYWGQGTQVTVSS” the “polyreactivity (PSR sort gate)” value was “low polyreactivity”.

With “QVQLVESGGGLVQAGGSLRLSCAASGITSSYAMGWYRQAPGKERALVAAISRGGSTYYADSVKGRFTISRDNAKNTVSLQMNSLKPEDTAVYYCNKRRYPYGWGQGTQVTVSS” the “polyreactivity (PSR sort gate)” value was “high polyreactivity”.

With “QVQLGESGGGLVQAGGSLRLSCAASGSIFRRYARGWYRQAPGKERELVAAISSSGGRTYYADSVKGRFTISRDNAKNTVYLQMNSLKPEETAVYYCAKDTYGFAANRPAGDGYWGQGTQVTVSS” the “polyreactivity (PSR sort gate)” value was “high polyreactivity”.

In the case of “QVQLVESVGGLVQEGGSLRLSCDASGSIFLYAMGWYRQAPGKERELVAAINRGGGSTYYADSVKGRFTISRDNAKNTVYLEMNSLKPEVTAVYYCAVVYLLPRYWWRYDYWGQGTQVTVSS”, the “polyreactivity (PSR sort gate)” value is reported as “low polyreactivity”.

In the case of “QVQLVESGGGLVQAGGSLRLSCAASGSTYDYNAMGWYIQAPGKERELDAAINSGASTYYGDSVKGRFTISRDNEKNSVYLQMNSMKPEDTAVYYCAKDYPYIGDYWGQCTQVTVSS”, the “polyreactivity (PSR sort gate)” value is reported as “low polyreactivity”.

With “QVQLVESAGGLVQEGGSLRLICAASARTIVIYSMGWYRQAPGKEREFVAAISRSGGSTYYADSVKGRFTISRDNQKNTVYLQMNSLQPVDTAVYYCNTRTPYWFKSDYWGQGTQVTVSS” the “polyreactivity (PSR sort gate)” value was “low polyreactivity”.

For “QVQLVESGGGLVQAGGSLRLSCAASGFTFTPNAMGWYRQAPGKERELVAVITWNGGTTYYADSVKGRFTISRDNAKNTVYLQMNSLKPEDTAVYYCNADGLILYDYWGQGTQVTVSS”, the “polyreactivity (PSR sort gate)” value was “low polyreactivity”.

For “QVQLVESGGGLVQAGGSLRLSCAASGITFKDYAMGWYRQATGKERELVAVISYSGGSTYYADSVKGRFTISRDNAKNTVYLEMNSLKPEDTAVYYCAARVGPEYDWGQGTQVTVSS”, the “polyreactivity (PSR sort gate)” value was “low polyreactivity”.

With “QVQLVESGGGLVQAGGSLRLSCAASGSIFSYYAMGWYRQAPGKERELVAAITIRGGRTYYADSVKGRFTISRDNAKNSVYLQMNSLKPEDTAVYYCAAETGHKQHGYTYEVSRRCYGYWGQGTQVTVSS” the “polyreactivity (PSR sort gate)” value was “low polyreactivity”.

For “QVQLVESGGGLVQAGGSLRLSCAASGSTFQYYAMGWYRQAPGKERELVAAISSSGGSTYYADSVKGRFTISRDNAKNTVYLQMNSLKPEDTAVYYCAKRFRRFTYTRDYWGQGTQVTVSS”, the “polyreactivity (PSR sort gate)” value was “high polyreactivity”.

In the case of “QVQLVESGGGLVQAGGSLRLSCAASGSTLVDYAMGWYRQAPRKERELVATISFRGGSTYYADSVKGRFTISRDNAKNTVYLQMNSLKPEDTAVYYCAREYGDGYEYWGQGTQVTVSS”, the “polyreactivity (PSR sort gate)” value is reported as “low polyreactivity”.

For “QVQLVESGGGLVQAGGSLRLSCAASGRIFNNNAMGWYRPAPGKERELVASITRRGGRTYYADSVKGRFTISRDNAKNTVYLQMNSLKPEDTAVYYCNALAGPPEFVRNYYWGQGTQVTVSS”, the “polyreactivity (PSR sort gate)” value was “high polyreactivity”.

In the case of “QVQLVESGGGLVQAGGSLRLSCAASGLTFVNYAMGWYRQAPGKERELVATISKTGGSTYYADSVKGRFTISRDNAKNTVYLQMNSLKPEDTAVYYCAVDAFYYKWYDYWGQGTQVTVSS”, the “polyreactivity (PSR sort gate)” value is reported as “high polyreactivity”.

With “QVQLVESGGGLVQAGGSLRLSCAASGFTFDRNAMGWYRQAPGKERELVATISQSGTNTYYADSVKGRFTISRDNAKNTVYLQMNSLKPEDTAVYYCNARYIFYRYDYWGQGTQVTVSS” the “polyreactivity (PSR sort gate)” value was “low polyreactivity”.

With “QVQLVESGGGLVQAGGSLRLSCAASGRNIHFNAMGWYRQAPGKERELVAGITFIGTSTYYADSVKGRFTISRDNAKNTVYLQMNSLKPDDTAVYYFAASAVALPYYAGDYDYWGQATQVTVSS” the “polyreactivity (PSR sort gate)” value was “low polyreactivity”.

For “QVQLVESGGGLVQAGGSLRLSCAASGFTFTRYAMGWYIQAPGKERELVAAISRRSGGRTYYADSVKGRFTISRDNAKNTVYLQMNSLKPEDTAVYYCAADYSLRSGYEYWGQGTQVTVSS”, the “polyreactivity (PSR sort gate)” value was “high polyreactivity”.

In the case of “QVQLVESGGGLVQAGGSLRLSCAASGISFITYVMGWYRQAPGKERELVAAISLRGGRTSYADSVKGRFTISRDNAKNTVYLQMNSLKPEDTAVYYCAARAYYTRYDYWGQGTQVTVSS”, the “polyreactivity (PSR sort gate)” value is reported as “high polyreactivity”.

In the case of “QVQLEESGGGLVQAGGSLRLSCAASGSIFDLNAMGWYRQAPGKERELVAANSSGGGTYYADSVKGRFTISRDNAKNTVYLQMNSLKPEDTAVYYCAAVGYKGYGYDYWGQGTQVTVSS”, the “polyreactivity (PSR sort gate)” value is reported as “high polyreactivity”.

For “QVQLVESGGGLVQAGGSLRLSCAASGYIFPRYAMGWYRQAPGKERELVAAITGSGGSTYYADSVKGRFTISRDNAKNTVYLQMNSLKPEDTAVYYCNTVYYRSGSQRLDYWGQGTQVTVSS”, the “polyreactivity (PSR sort gate)” value was “high polyreactivity”.

In the case of “QVQLVESGGGLVQAGGSLRLSCAASGSTFSRYAMGWYRQAPGKERELVAAISSSGGSTYYADSVKGRFTISRDNAKNTVYLQMNSLKPEDTAVYYCAARYYGVTRGYNYWGQGTQVTVSS”, the “polyreactivity (PSR sort gate)” value is reported as “high polyreactivity”.

With “QVQLVESGGGLVQAGGSLRLSCAASGGTFVHYTMGWYRPAPGKERELVASIRRGGSTNYADSVKGRFTISRDNAKNTVYLQMNSLKPEDTAVYYCAKRVQHYRYYYWGQGSQVTVSS” the “polyreactivity (PSR sort gate)” value was “low polyreactivity”.

For “QVQLVESGGGLVQAGGSLRLSCAASGRTFGRYAMGWYRQAPGKEREFVAAIRSHGVSTYYADSVKGRFTISRDNAKNTVYLQMNSLKPEDTAVYYCAKPSTSYYQRGDYWGQGTQVTVSS”, the “polyreactivity (PSR sort gate)” value was “high polyreactivity”.

With “QVQLQESGGGLVQAGGSLRLSCAASGNISYRTHMGWYRQAPGKERELVASIGGGTTNYADSVKGRFTISRDNAKNTVYLQMNSLKPEDTAVYYCAVVGTTQFRHRYWGQGTQVTASS” the “polyreactivity (PSR sort gate)” value was “high polyreactivity”.

With “QVQLVESGGGLVQAGGSLRLSCAASGFTFYIYAMGWSRQAPGKERELVAAISSSGGSTYYADSVKGRFTISRDNAKNTVYLQMNSLNPEDTAVYYWNVVRYPVYRTRYYYWGQGTQVTVSS” the “polyreactivity (PSR sort gate)” value was “high polyreactivity”.

With “QVQLVESGGGLVQAGGSLRLSCAASGRTFNRNAMGWYRPAPGKERELVAAISWGGSRTYYADSVKGRFTISRDNAKNTVYLQMNSLKPEDTAVYYCAVDGFRGRSHGANDYWGQGTQVTVSS” the “polyreactivity (PSR sort gate)” value was “high polyreactivity”.

With “QVQLVESGGGLVQAGGSLRLSCAASGNIFRYNARGWYRKAPGKERELVAAISSVGTTNSADSVKGRFTSSRDNAKNTFYLQMNSLKPEDTAVYYCNAAWSSYLSGGYESWGQGTQVTVSS” the “polyreactivity (PSR sort gate)” value was “low polyreactivity”.

In the case of “PVQLVESGGGLVQAGVSLRLSGAASGFIFYYYAMGWYSQAPGKEREFVAAISQSVGSTYYADSVKGRFTISRDNANNTVYLQMNSLKPADTAVYYCNARGWIPARGWDDYYWGQGTQVTVSS”, the “polyreactivity (PSR sort gate)” value is reported as “high polyreactivity”.

For “QVQLVESGGGLVQAGGSLRLSCAASGSTFSVYALGWYRPAPGKERELVAVISSTDDSTYYADSVKGRFTISRDNAKNTVYLQMNSLKPEDTAVYYCAAPDDTTGYDYYYWGQGTQVTVSS”, the “polyreactivity (PSR sort gate)” value was “low polyreactivity”.

For “QVQLVESGGGLVQAGGSLRLSCAASGFIFGNYVLGWSRQAPGKERELVAAISESGSRTYYADSVKGRFTISRDYAKKTVYLQMNSLKPEDTAVYYCAAALFSYYGEYDYWGQGTQVTVSS”, the “polyreactivity (PSR sort gate)” value was “low polyreactivity”.

In the case of “QVQLVESGGGLVQAGGSLRLSCAASGSIFRKYAMGWYRQAPGKDRELVAAISKRGGSTYYADSVKGRFTISRDNAKNTVYLQMNSLKPEDTAVYYSNALRRYVSVRPTKSDYWGQGTQVTVSS”, the “polyreactivity (PSR sort gate)” value is reported as “high polyreactivity”.

In the case of “QVQLVESGGGLVQAGGSLRLSCAASGRIFAGYAMGWYRQAPGKERELVAAISKRGGSTYYADSVKGRFTISRDKAKNTVYLQMNSLKPEDTAVYYCAADTGYPNGQGQGYQNFGGYYWGQGTQVTVSS”, the “polyreactivity (PSR sort gate)” value is reported as “high polyreactivity”.

In the case of “QVQLVESGGGLVQAGGSLRLSCAASGRIFYLNAMGWYRVAPGKERELVAAITRSAASTHYADSVKGRFTISRDNAKNTVYLQMNSLKPEDTAVYYCAARFWYDYRHYDYWGQGTQVTVSS”, the “polyreactivity (PSR sort gate)” value is reported as “low polyreactivity”.

With “QVQLVESGGGLVQAGGSLRLTCAASGRILGYYAMGWYRPAPGKERELVAAITYSGGSTYYADSVKGRFSISRDNAKNTVYLQMNILKPEDTAVYYCAADKLLLGLYGSTWNDYWGQGTQVTVSS” the “polyreactivity (PSR sort gate)” value was “low polyreactivity”.

With “QVQLVESGGGLVQAGGSLRLSCAASGSILEGNAMGWYRQAPGKERELVASISGDGSTNYADSVKGRFTISRDNAKNTVYLQMNSLKPEDTAVYYCAARYGRIHWKANWPEYGYWGQGTQVTVSS” the “polyreactivity (PSR sort gate)” value was “low polyreactivity”.

With “QVQLVESGGGLVQAGGSLRISCAASGRIFGFNAMGWYRQAPGKERELVAAISRTSSSTYYADSVKGRFTISRDNAKNTVYLQMNSLKPEDTAVYYCATRYFTHGKYDYWGQGTQVTVSS” the “polyreactivity (PSR sort gate)” value was “high polyreactivity”.
